Measurements as given in paper PMC2712759 (2009).

Target: purified recombinant Hsp70 (UniProt P0DMV8 1-641)
Sequence (P0DMV8 whole entry): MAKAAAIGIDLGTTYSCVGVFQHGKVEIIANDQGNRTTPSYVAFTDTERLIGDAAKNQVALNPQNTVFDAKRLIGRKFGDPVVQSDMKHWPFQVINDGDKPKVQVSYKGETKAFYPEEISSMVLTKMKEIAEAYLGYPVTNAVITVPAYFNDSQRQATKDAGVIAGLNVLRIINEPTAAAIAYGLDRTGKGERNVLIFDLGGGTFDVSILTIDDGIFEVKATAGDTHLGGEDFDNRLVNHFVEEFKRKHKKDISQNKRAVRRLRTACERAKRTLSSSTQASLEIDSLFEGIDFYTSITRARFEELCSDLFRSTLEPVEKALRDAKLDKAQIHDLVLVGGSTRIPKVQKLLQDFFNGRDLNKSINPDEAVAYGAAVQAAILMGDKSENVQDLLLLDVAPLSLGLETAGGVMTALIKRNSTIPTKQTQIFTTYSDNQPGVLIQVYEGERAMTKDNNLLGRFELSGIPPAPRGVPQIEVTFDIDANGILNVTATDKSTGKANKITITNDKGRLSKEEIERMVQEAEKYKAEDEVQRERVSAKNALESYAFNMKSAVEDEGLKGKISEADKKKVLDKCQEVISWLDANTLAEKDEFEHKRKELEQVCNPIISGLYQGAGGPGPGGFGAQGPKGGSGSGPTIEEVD

B1: recombinant normal PABPN1 (wt-PABPN1) from E. coli (natural protein)
chain: MAAAAAAAAAAGAAGGRGSGPGRRRHLVPGAGGEAGEGAPGGAGDYGNGLESEELEPEELLLEPEPEPEPEEEPPRPRAPPGAPGPGPGSGAPGSQEEEEEPGLVEGDPGDGAIEDPELEAIKARVREMEEEAEKLKELQNEVEKQMNMSPPPGNAGPVIMSIEEKMEADARSIYVGNVDYGATAEELEAHFHGCGSVNRVTILCDKFSGHPKGFAYIEFSDKESVRTSLALDESLFRGRQIKVIPKRTNRPGISTTDRGFPRARYRARTTNYNSSRSRFYSGFNSRPRGRVYRGRARATSWYSPY
B1 showed a Kd of 14 µM.
